Source: publication PMC5805349, “Recombinant expression, purification and biochemical characterization of kievitone hydratase from Nectria haematococca” (PLoS ONE, 2018)

What was measured:
[1] = molecular target: T1, FsKHS (Fusarium phaseoli, UniProt Q00870); experiment: HPLC conversion assay with P. pastoris culture supernatant; format: biochemical; details: 2 mM kievitone, 35°C, culture supernatant of P. pastoris expressing FsKHS, mere turnover
T1 construct: gene khs; 19-residue signal peptide cleaved between Ala19 and Ser20; C-terminal His10 tag
T1 sequence (Q00870 20-350): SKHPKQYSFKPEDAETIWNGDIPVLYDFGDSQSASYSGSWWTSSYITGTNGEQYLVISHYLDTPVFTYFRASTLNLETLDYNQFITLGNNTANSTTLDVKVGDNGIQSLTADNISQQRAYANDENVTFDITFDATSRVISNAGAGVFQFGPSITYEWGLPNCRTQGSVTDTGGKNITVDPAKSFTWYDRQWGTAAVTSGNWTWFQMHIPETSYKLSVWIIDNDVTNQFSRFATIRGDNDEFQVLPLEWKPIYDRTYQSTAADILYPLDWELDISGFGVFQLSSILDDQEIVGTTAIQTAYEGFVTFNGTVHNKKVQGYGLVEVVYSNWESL

[2] = system: COc1cc(O)c(CC=C(C)C)c(O)c1C(=O)/C=C/c1ccc(O)cc1; experiment: purified protein; details: 50 mM sodium citrate, pH 6.0, 35°C, 2% v/v ethanol, 0.05 mg/mL enzyme, apparent because of low XN solubility, water is co-substrate

Molecule	% substrate converted in 3 h [1]	Km [2]	kcat [2]
CC(C)=CCc1c(O)cc(O)c2c1OCC(c1ccc(O)cc1O)C2=O (stereo not drawn) [KV, kievitone]	~ 89%	–	–
NhKHS (Fusarium vanettenii 77-13-4)	–	980 ± 130 µM	4.77 ± 0.33 s⁻¹
